Measured values from publication PMC5299047 (Structure (London, England : 1993), 2017).

Molecular target: the molecule itself
Test: SAXS

B1: Saccharomyces cerevisiae Rnt1p (intact protein) (enzyme, UniProt Q02555 1-471, looked up)
chain: MGSKVAGKKKTQNDNKLDNENGSQQRENINTKTLLKGNLKISNYKYLEVIQLEHAVTKLVESYNKIIELSPNLVAYNEAVNNQDRVPVQILPSLSRYQLKLAAELKTLHDLKKDAILTEITDYENEFDTEQKQPILQEISKADMEKLEKLEQVKREKREKIDVNVYENLNEKEDEEEDEGEDSYDPTKAGDIVKATKWPPKLPEIQDLAIRARVFIHKSTIKDKVYLSGSEMINAHNERLEFLGDSILNSVMTLIIYNKFPDYSEGQLSTLRMNLVSNEQIKQWSIMYNFHEKLKTNFDLKDENSNFQNGKLKLYADVFEAYIGGLMEDDPRNNLPKIRKWLRKLAKPVIEEATRNQVALEKTDKLDMNAKRQLYSLIGYASLRLHYVTVKKPTAVDPNSIVECRVGDGTVLGTGVGRNIKIAGIRAAENALRDKKMLDFYAKQRAAIPRSESVLKDPSQKNKKRKFSDTS
For B1, the “stoichiometry N” value was 2.
